Source: the RNAGym collection of RNA variant scans (doi:10.1073/pnas.2313332121)
Variants at the floor of the assay were thinned out.

B1: TPR 5TU (parent)
chain: GGAUCUUCUCGAUCUAACAAAAAAGACAAAUCUGCCACAAAGCUUGAGAGCAUCUUCGGAUGCAGAGGCGGCAGCCUUCGGUGGCGCGAUAGCGCCAACGUUCUCAACUAUGACACGCAAAACGCGUGCUCCGUUGAAUGGAGUUUAUCAUG

Variants of: B1
Experiment: polymerase ribozyme fitness, log enrichment relative to wild type (log ratio); higher = more active; in vitro selection for triplet polymerase activity
Summary of the method: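 The heterodimeric triplet polymerase ribozyme's subunits were each mutagenized into PCR-built libraries and transcribed. Every library was selected once, in triplicate, by annealing with a biotinylated primer, the partner subunit and triplets, incubating frozen at −7 °C, gel-excising extended constructs, capturing on streptavidin beads and running RT-PCR. Input and output libraries were Illumina-sequenced, with genotypes kept only at ≥10 input reads and ≥1 read per output. Fitness, from inverse-variance-weighted replicate averages, is the base-2 logarithm of genotype enrichment over wild-type enrichment.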

Variant	polymerase ribozyme fitness (log ratio)
A24C G81U G83C A110U C114G	≤ -4.2
G25A C54U C96U A150U	-0.00287
A24U A30G A64G C87G A122U C125U C149U	≤ -4.2
A24U A26U G48C G83A A115U C116U	≤ -4.2
A24G A66G C85A A91U U127C G133A U134A	≤ -4.2
A24U G25A A39G A60U G83C	≤ -4.2
A24C U45A C57U G84A	≤ -4.2
A24U U53A C57G A115U U151A	≤ -4.2
G25C A150C	-3.47
A24G C69A A91U A138U G143U	≤ -4.2
A24U A47C G86A G94C C118U A137G	≤ -4.2
A24U U56C G62A A64G G68C G83A G124U U146A	≤ -4.2
G25C G83C C87G A91G	≤ -4.2
A24G A30U U31C U101G	-3.98
A23U G88U C116U G140U G143U U146G	≤ -4.2
A24C G67A G81C G88A	≤ -4.2
A24U C57U A89U G92C U127C C131G	≤ -4.2
G25C A97G	-2.53
A24U U55A	-0.466
A24U U55G	0.467
A24U A41G U53G G124C C131U	-1.4

Variant	polymerase ribozyme fitness (log ratio)
A24G C57U	-3.7
A24U U55A C87U G92U	-3.1
A24U A49G A52C U53A U55A C69A	≤ -4.2
A24U G94A	0.123
A24U G59C	0.829
A24C C85U A120C U146A	≤ -4.2
A24G G74A C93G G140C U151G	≤ -4.2
A24C G42U U44G U61A G80C A110U	≤ -4.2
A24U U102C A120G A121C	-2.13
A24U U53A U56G C57U A91U	≤ -4.2
A24G U53A U61A G84C C125U	≤ -4.2
A24U C63A	1.21
A24C C32G C43G C87G U104G A115C	≤ -4.2
A24U A37U U82G	-0.974
A24U C35A A52U G84A G136A	≤ -4.2
A24U A60G C85U A97C C129U	-0.602
A24C A73G G83C G143U	≤ -4.2
A24U A40C A49C C72G G83U C87G U139G U144C U151G	≤ -4.2
G25A A37G C54A C87G	≤ -4.2
G25C U31A C96G	-1.31
A24G C54U G67A G141A A150C	≤ -4.2

Variant	polymerase ribozyme fitness (log ratio)
A23U U109A	≤ -4.2
A24G G42U C72A A91U G92A U102G G136U	≤ -4.2
G25A C38U C85G	-4.07
A23U U53A C96A C114G G143A U146G	≤ -4.2
A24U C51A U56A G71U G88C U102C	≤ -4.2
G25C C132U	-3.65
A24C C51U C105G	≤ -4.2
A24C G67C G92U C99U U109G A110U	≤ -4.2
A24U C93U G136A	-1.47
A24U A28U C79G A91U A97U C116U C132U U135A	≤ -4.2
G25C A39C C76A C79U C87A A110U C114U	≤ -4.2
A23U U77C C87U	≤ -4.2
A24U U31C G59C A66G A91U C114U	≤ -4.2
A24C G34A C87A G126U	-4.18
A24U G136U	-2.44
A24U A39U C96A C99G U130C C131G	≤ -4.2
A24U U56A U148A	-3.8
A24U C35U C38G A89U A91U	-3.93
A24U A30U G59A U101C U102G A121U G126C A142C	≤ -4.2
A24U A66G	-3.16
A24G C125G	-3.52

Variant	polymerase ribozyme fitness (log ratio)
A24U A40C A98U	0.235
G25C A60G G83C C96U G141U	-2.48
A23U U55A	-3.85
A24C A28U A37U U134C	≤ -4.2
G25C C87A G100U	≤ -4.2
A24U A30C G140A	-3.94
G25C U31C C32G U55A C75G C76U C79A A115G A120C C129A	≤ -4.2
G25C A66G A106C	≤ -4.2
A24C A28U A41C U78G A122G U127A	≤ -4.2
G25A U55A U135A	-3.79
A24U G86A	-1.43
A24U G86U	-2.59
A24U C51G U55A G59C	-2.27
A24U U53A U55A G68C C76A C85G	≤ -4.2
A24C A64C	≤ -4.2
A24U A26C C27G C36G G81A A98G G136U U139G A142C	≤ -4.2
A24U A30C C93G C118A	≤ -4.2
A24G	-1.75
A24U	0.541
A24C	-3.22
G25C G86A A122U	≤ -4.2
